Experiments:
human CD22 (human) [1] = biological target: human CD22 (human) (UniProt P20273); assay: flow cytometry, REH cells, 10 µg/ml
human CD22 (human) [2] = biological target: human CD22 (human) (UniProt P20273); assay: flow cytometry, Daudi cells, 10 µg/mL
human CD22 (human) [3] = biological target: human CD22 (human) (UniProt P20273); assay: flow cytometry, Raji cells, 10 µg/mL
human CD22 (human) [4] = biological target: human CD22 (human) (UniProt P20273); assay: flow cytometry, Ramos cells, 10 µg/mL
human CD22 (human) [5] = biological target: human CD22 (human) (UniProt P20273); assay: flow cytometry, RL cells, 10 µg/mL
human CD22 (human) [6] = biological target: human CD22 (human) (UniProt P20273); assay: flow cytometry, Daudi cells, 10 µg/ml

isotype control antibody human IgG showed an MFI (human CD22 (human) [1]) of 4.5, an MFI (human CD22 (human) [2]) of 8.3 and an MFI (human CD22 (human) [3]) of 6.2. For the same substance, the MFI (human CD22 (human) [4]) was 5.4, the MFI (human CD22 (human) [5]) was 12.8 and the MFI (human CD22 (human) [6]) was 26.1.

Source: patent US20160015831A1
